Results reported in paper PMC3821671 (Bacteriophage, 2013).

Target: P167L Rho (E. coli, UniProt P0AG30 1-419, P167L)
Assay: pull-down

B1: his-tagged WT Psu (polarity suppression protein, bacteriophage P4 capsid decorating protein) (natural protein)
chain: MESTALQQAFDTCQNNKAAWLQRKNELAAAEQEYLRLLSGEGRNVSRLDELRNIIEVRKWQVNQAAGRYIRSHEAVQHISIRDRLNDFMQQHGTALAAALAPELMGYSELTAIARNCAIQRATDALREALLSWLAKGEKINYSAQDSDILTTIGFRPDVASVDDSREKFTPAQNMIFSRKSAQLASRQSV
binding result: binds
